PMC12322040 (Nature Communications, 2025)

Legend:
GST-GCK WT = target: T1, GST-GCK WT (human, UniProt P35557 1-465); assay: pull-down
T1 sequence (looked up): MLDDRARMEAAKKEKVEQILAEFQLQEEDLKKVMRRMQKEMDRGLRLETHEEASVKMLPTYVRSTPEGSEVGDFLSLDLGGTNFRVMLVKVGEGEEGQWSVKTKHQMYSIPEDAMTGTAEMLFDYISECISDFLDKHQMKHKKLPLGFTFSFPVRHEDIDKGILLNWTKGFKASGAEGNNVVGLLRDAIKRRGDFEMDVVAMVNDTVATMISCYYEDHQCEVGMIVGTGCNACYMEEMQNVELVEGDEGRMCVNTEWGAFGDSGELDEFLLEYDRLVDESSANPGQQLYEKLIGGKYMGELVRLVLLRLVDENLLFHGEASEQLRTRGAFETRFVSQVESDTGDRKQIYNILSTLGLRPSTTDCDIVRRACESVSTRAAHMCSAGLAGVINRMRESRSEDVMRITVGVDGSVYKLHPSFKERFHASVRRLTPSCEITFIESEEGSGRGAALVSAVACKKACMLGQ

His-GCK WT = target: T2, His-GCK WT (human, UniProt P35557 1-465); assay: pull-down
T2 sequence (looked up): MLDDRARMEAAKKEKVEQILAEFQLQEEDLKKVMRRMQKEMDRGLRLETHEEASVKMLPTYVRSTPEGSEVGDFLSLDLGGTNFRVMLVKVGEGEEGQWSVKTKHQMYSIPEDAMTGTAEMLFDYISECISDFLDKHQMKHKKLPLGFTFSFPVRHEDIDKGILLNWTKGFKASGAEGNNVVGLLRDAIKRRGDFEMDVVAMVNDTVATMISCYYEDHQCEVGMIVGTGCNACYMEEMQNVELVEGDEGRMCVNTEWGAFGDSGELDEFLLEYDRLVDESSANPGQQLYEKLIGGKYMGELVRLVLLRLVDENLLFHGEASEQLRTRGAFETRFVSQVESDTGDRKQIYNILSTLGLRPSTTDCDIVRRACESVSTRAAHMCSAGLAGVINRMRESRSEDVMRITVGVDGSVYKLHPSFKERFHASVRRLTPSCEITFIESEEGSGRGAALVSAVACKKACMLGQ

B1: His-CK2α (enzyme, human, UniProt P68400 1-391, looked up)
chain: MSGPVPSRARVYTDVNTHRPREYWDYESHVVEWGNQDDYQLVRKLGRGKYSEVFEAINITNNEKVVVKILKPVKKKKIKREIKILENLRGGPNIITLADIVKDPVSRTPALVFEHVNNTDFKQLYQTLTDYDIRFYMYEILKALDYCHSMGIMHRDVKPHNVMIDHEHRKLRLIDWGLAEFYHPGQEYNVRVASRYFKGPELLVDYQMYDYSLDMWSLGCMLASMIFRKEPFFHGHDNYDQLVRIAKVLGTEDLYDYIDKYNIELDPRFNDILGRHSRKRWERFVHSENQHLVSPEALDFLDKLLRYDHQSRLTAREAMEHPYFYTVVKDQARMGSSSMPGGSTPVSSANMMSGISSVPTPSPLGPLAGSPVIAAANPLGMPVPAAAGAQQ
GST-GCK WT
  binding result: binds

B2: GST-CK2α WT phosphorylated by active His-ERK2 (enzyme, human, UniProt P68400 1-391, looked up)
chain: MSGPVPSRARVYTDVNTHRPREYWDYESHVVEWGNQDDYQLVRKLGRGKYSEVFEAINITNNEKVVVKILKPVKKKKIKREIKILENLRGGPNIITLADIVKDPVSRTPALVFEHVNNTDFKQLYQTLTDYDIRFYMYEILKALDYCHSMGIMHRDVKPHNVMIDHEHRKLRLIDWGLAEFYHPGQEYNVRVASRYFKGPELLVDYQMYDYSLDMWSLGCMLASMIFRKEPFFHGHDNYDQLVRIAKVLGTEDLYDYIDKYNIELDPRFNDILGRHSRKRWERFVHSENQHLVSPEALDFLDKLLRYDHQSRLTAREAMEHPYFYTVVKDQARMGSSSMPGGSTPVSSANMMSGISSVPTPSPLGPLAGSPVIAAANPLGMPVPAAAGAQQ
modifications: phosphothreonine at 360, phosphoserine at 362 (ERK-mediated)
His-GCK WT
  binding result: binds
